Results published in US20140134132A1.

Molecular target: organic anion transporting polypeptide 1B1 (UniProt Q9Y6L6)
Test: cell-based or functional assay

organic anion transporting polypeptide 1B1, sequence (Q9Y6L6 whole entry): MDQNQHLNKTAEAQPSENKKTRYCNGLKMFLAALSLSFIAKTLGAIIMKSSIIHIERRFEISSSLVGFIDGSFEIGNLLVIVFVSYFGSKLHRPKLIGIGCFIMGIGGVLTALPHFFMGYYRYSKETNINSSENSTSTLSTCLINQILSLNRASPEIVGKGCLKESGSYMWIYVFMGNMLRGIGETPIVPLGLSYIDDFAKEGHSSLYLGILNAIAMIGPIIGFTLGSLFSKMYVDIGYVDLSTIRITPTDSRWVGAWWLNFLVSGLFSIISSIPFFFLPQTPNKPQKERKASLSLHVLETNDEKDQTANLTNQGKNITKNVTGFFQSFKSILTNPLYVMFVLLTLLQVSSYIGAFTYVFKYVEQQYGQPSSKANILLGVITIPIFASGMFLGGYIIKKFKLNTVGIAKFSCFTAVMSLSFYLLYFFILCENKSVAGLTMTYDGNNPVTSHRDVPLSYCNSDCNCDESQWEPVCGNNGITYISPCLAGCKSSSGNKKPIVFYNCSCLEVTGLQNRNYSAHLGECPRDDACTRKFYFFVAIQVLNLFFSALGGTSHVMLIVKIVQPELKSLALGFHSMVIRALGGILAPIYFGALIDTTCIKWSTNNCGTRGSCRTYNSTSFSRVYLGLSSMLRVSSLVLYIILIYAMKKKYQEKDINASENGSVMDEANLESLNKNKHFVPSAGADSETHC

Row | OATP1B13 IC50 [nM] | Substance
1 | 3300 | 1-dihydro-3-[D-Ala]-4[(2S,3S)-2-Amino-4-[4-(2-methoxy-ethyl)-piperazin-1-yl]-3-methyl-butanoyl]-cyclosporin (peptide)
2 | 2100 | 3-[(R)-2-(methylamino)butanoic acid]-4-[(2S,3S)-4-methoxy-3-methyl-2-(methylamino)butanoyl]-cyclosporin (peptide)
3 | 2000 | 3-[(R)-3-methyl-2-(methylamino)butanoyl]-4-[(2S,3S)-4-methoxy-3-methyl-2-(methylamino)butanoyl]-cyclosporin (peptide)
4 | 2700 | 3-[(R)-5-hydroxy-2-(methylamino)pentanoyl]-4-[(2S,3S)-3-methyl-2-(methylamino)-4-(methylsulfonyl)butanoyl]-cyclosporin (peptide)
5 | 4700 | 3-[D-Ala]-4-[(2S,3R)-3,6-dimethyl-2-(methylamino)-6-((4-methylpiperazine-1-carbonyl)oxy)heptanoyl]-cyclosporin (peptide)
6 | 900 | 3-[D-Ala]-4-[(2S,3R)-3-methoxy-2-(methylamino)-4-morpholinobutanoyl]-cyclosporin (peptide)
7 | 2100 | 3-[D-Ala]-4-[(2S,3R)-3-methyl-2-(methylamino)-4-(1,4-dioxa-8-azaspiro[4.5]decan-8-yl)butanoyl]-cyclosporin (peptide)
8 | 1700 | 3-[D-Ala]-4-[(2S,3R)-3-methyl-2-(methylamino)-4-(1,4-oxazepan-4-yl)butanoyl]-cyclosporin (peptide)
9 | 3400 | 3-[D-Ala]-4-[(2S,3R)-3-methyl-2-(methylamino)-4-(2-oxa-6-azaspiro[3.3]heptan-6-yl)butanoyl]-cyclosporin (peptide)
10 | 2000 | 3-[D-Ala]-4-[(2S,3R)-3-methyl-2-(methylamino)-4-(2-oxa-6-azaspiro[3.4]octan-6-yl)butanoyl]-cyclosporin (peptide)
11 | 1000 | 3-[D-Ala]-4-[(2S,3R)-3-methyl-2-(methylamino)-4-(3-(trifluoromethyl)-5,6-dihydro-[1,2,4]triazolo[4,3-a]pyrazin-7(8H)-yl)butanoyl]-cyclosporin (peptide)
12 | 2100 | 3-[D-Ala]-4-[(2S,3R)-3-methyl-2-(methylamino)-4-(3-oxopiperazin-1-yl)butanoyl]-cyclosporin (peptide)
13 | 1800 | 3-[D-Ala]-4-[(2S,3R)-3-methyl-2-(methylamino)-4-(4-(methylsulfonyl)piperidin-1-yl)butanoyl]-cyclosporin (peptide)
14 | 7900 | 3-[D-Ala]-4-[(2S,3R)-3-methyl-2-(methylamino)-4-(4-methylpiperazin-1-yl)butanoyl]-cyclosporin (peptide)
15 | 1700 | 3-[D-Ala]-4-[(2S,3R)-3-methyl-2-(methylamino)-5-((S)-2-methylpiperidin-1-yl)pentanoyl]-cyclosporin (peptide)
16 | 2800 | 3-[D-Ala]-4-[(2S,3R)-3-methyl-2-(methylamino)-5-((S)-3-oxotetrahydro-1H-oxazolo[3,4-a]pyrazin-7(3H)-yl)pentanoyl]-cyclosporin (peptide)
17 | 2300 | 3-[D-Ala]-4-[(2S,3R)-3-methyl-2-(methylamino)-5-(piperidin-1-yl)pentanoyl]-cyclosporin (peptide)
18 | 3900 | 3-[D-Ala]-4-[(2S,3R)-3-methyl-2-(methylamino)-5-morpholinopentanoyl]-cyclosporin (peptide)
19 | 5400 | 3-[D-Ala]-4-[(2S,3R)-3-methyl-2-(methylamino)-6-(4-methylpiperazin-1-yl)-6-oxohexanoyl]-cyclosporin (peptide)

Row | OATP1B13 IC50 [nM] | Substance
20 | 2900 | 3-[D-Ala]-4-[(2S,3R)-3-methyl-2-(methylamino)-6-((4-methylpiperazine-1-carbonyl)oxy)hexanoyl]-cyclosporin (peptide)
21 | 7800 | 3-[D-Ala]-4-[(2S,3R)-3-methyl-2-(methylamino)-6-(((1-methylpiperidin-4-yl)carbamoyl)oxy)hexanoyl]-cyclosporin (peptide)
22 | 4800 | 3-[D-Ala]-4-[(2S,3R)-3-methyl-2-(methylamino)-6-morpholino-6-oxohexanoyl]-cyclosporin (peptide)
23 | 1000 | 3-[D-Ala]-4-[(2S,3R)-3-methyl-4-(methyl(pyridin-3-ylmethyl)amino)-2-(methylamino)butanoyl]-cyclosporin (peptide)
24 | 3700 | 3-[D-Ala]-4-[(2S,3R)-3-methyl-6-((methyl(1-methylpiperidin-4-yl)carbamoyl)oxy)-2-(methylamino)hexanoyl]-cyclosporin (peptide)
25 | 1400 | 3-[D-Ala]-4-[(2S,3R)-4-(3,3-difluoropyrrolidin-1-yl)-3-methyl-2-(methylamino)butanoyl]-cyclosporin (peptide)
26 | 4200 | 3-[D-Ala]-4-[(2S,3R)-4-(3-methoxyazetidin-1-yl)-3-methyl-2-(methylamino)butanoyl]-cyclosporin (peptide)
27 | 2100 | 3-[D-Ala]-4-[(2S,3R)-4-(4-(ethoxycarbonyl)piperazin-1-yl)-3-methyl-2-(methylamino)butanoyl]-cyclosporin (peptide)
28 | 2300 | 3-[D-Ala]-4-[(2S,3R)-4-(4-acetylpiperazin-1-yl)-3-methyl-2-(methylamino)butanoyl]-cyclosporin (peptide)
29 | 1900 | 3-[D-Ala]-4-[(2S,3R)-4-(4-cyanopiperidin-1-yl)-3-methyl-2-(methylamino)butanoyl]-cyclosporin (peptide)
30 | 1700 | 3-[D-Ala]-4-[(2S,3R)-4-(8-oxa-3-azabicyclo[3.2.1]octan-3-yl)-3-methyl-2-(methylamino)butanoyl]-cyclosporin (peptide)
31 | 2700 | 3-[D-Ala]-4-[(2S,3R)-4-((2-(dimethylamino)-2-oxoethyl)(methyl)amino)-3-methyl-2-(methylamino)butanoyl]-cyclosporin (peptide)
32 | 1900 | 3-[D-Ala]-4-[(2S,3R)-4-((2-methoxyethyl)(methyl)amino)-3-methyl-2-(methylamino)butanoyl]-cyclosporin (peptide)
33 | 2600 | 3-[D-Ala]-4-[(2S,3R)-4-((2S,5S)-2,5-dimethylmorpholino)-3-methyl-2-(methylamino)butanoyl]-cyclosporin (peptide)
34 | 2200 | 3-[D-Ala]-4-[(2S,3R)-4-((4-ethylpiperazine-1-carbonyl)oxy)-3-methyl-2-(methylamino)butanoyl]-cyclosporin (peptide)
35 | 900 | 3-[D-Ala]-4-[(2S,3R)-4-cyano-3-methyl-2-(methylamino)butanoyl]-cyclosporin (peptide)
36 | 1400 | 3-[D-Ala]-4-[(2S,3R)-5-(3-methoxyazetidin-1-yl)-3-methyl-2-(methylamino)pentanoyl]-cyclosporin (peptide)
37 | 9100 | 3-[D-Ala]-4-[(2S,3R)-5-(4-(2-methoxyethyl)piperazin-1-yl)-3-methyl-2-(methylamino)pentanoyl]-cyclosporin (peptide)
38 | 2400 | 3-[D-Ala]-4-[(2S,3R)-5-(4-cyanopiperidin-1-yl)-3-methyl-2-(methylamino)pentanoyl]-cyclosporin (peptide)
